Broadly, the Kd is the free concentration of one partner at which half of the binding sites on the other are occupied at equilibrium, for simple one-to-one binding. A low value points to a tighter complex. Usually koff stands for the first-order rate constant of dissociation. The low end stands for slow dissociation, the high end for fast dissociation. In general, kon refers to a measure of how fast the partners come together. Higher therefore signals fast association.

This assay concerns the target KDR(ECD1-3)-Fc (human) (UniProt P35968). Briefly: BIAcore; KDR(ECD1-3)-Fc immobilized on CM5 chip, IgG in flow. (In general: Surface plasmon resonance follows binding to a sensor surface in real time, without labels.)

KDR(ECD1-3)-Fc (human), sequence (P35968 other isoform, or with tags, fused parts or gaps limits assumed, form in doubt): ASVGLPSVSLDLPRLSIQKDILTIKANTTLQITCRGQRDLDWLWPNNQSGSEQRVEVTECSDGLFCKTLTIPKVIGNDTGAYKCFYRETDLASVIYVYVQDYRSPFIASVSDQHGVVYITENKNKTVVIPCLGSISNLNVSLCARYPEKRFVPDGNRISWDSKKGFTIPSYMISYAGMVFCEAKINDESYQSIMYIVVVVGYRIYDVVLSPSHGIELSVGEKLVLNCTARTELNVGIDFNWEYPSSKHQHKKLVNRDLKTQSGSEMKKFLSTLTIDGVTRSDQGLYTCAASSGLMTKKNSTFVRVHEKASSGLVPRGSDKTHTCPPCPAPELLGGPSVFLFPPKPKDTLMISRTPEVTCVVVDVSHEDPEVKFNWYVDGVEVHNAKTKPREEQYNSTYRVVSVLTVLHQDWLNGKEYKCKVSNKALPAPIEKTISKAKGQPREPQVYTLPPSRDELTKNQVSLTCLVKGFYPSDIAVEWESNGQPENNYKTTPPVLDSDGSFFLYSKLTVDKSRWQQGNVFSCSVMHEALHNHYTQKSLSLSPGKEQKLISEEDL

Substance IMC-1121 IgG (reconstructed) (antibody) came in with a Kd of 0.385 nM, a koff of 8.75e-05 s⁻¹ and a kon of 227000 M⁻¹ s⁻¹.

Source of the values: US20110065176A1.
